Assay results published in patent publication EP4778939A1 (Jiangsu Hengrui Pharmaceuticals Co., Ltd., dated 2026).

Target: human GPRC5D (human, UniProt Q9NZD1 1-345)
Assay: cell-based or functional assay

Chain of human GPRC5D (Q9NZD1 whole entry): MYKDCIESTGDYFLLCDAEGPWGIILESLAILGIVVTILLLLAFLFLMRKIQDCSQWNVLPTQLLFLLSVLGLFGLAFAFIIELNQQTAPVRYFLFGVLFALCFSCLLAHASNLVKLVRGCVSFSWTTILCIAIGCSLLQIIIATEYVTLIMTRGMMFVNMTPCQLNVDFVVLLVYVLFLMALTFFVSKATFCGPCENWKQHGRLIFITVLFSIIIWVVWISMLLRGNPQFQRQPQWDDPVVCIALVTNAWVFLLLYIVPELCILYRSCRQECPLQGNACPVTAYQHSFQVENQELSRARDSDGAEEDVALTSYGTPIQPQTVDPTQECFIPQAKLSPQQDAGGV

B1: F2-0G4S-1 (bispecific antibody)
heavy 1: not shown
light 1: DVVMTQTPLSLSVTPGQPASISCRSSQSLVHSQGNTYLYWYLQKPGQSPKLLIYKVSNRFSGVPDRFSGSGSGTDFTLKISRVEAEDVGVYYCSQSTHVPPLTFGQGTKLEIKRTVAAPSVFIFPPSDEQLKSGTASVVCLLNNFYPREAKVQWKVDNALQSGNSQESVTEQDSKDSTYSLSSTLTLSKADYEKHKVYACEVTHQGLSSPVTKSFNRGEC
heavy 2: not shown
light 2: not shown
EC50 ratio (relative to JNJ-64407564), cytotoxic activity against NCI-H929: 0.57 ratio

B2: F4-0G4S-1 (bispecific antibody)
heavy 1: not shown
light 1: not shown
heavy 2: EVQLVQSGAEVKKPGASVKVSCKVSGYTFTDYPIHWMRQAPGQGLEWMGYVFPRDGSTKYNEKFRVRVTWTADKSTSTVYMELSSLRSEDTAVYYCSRELTAYWGQGTTVTVSSASTKGPSVFPLAPSSKSTSGGTAALGCLVKDYFPEPVTVSWNSGALTSGVHTFPAVLQSSGLYSLSSVVTVPSSSLGTQTYICNVNHKPSNTKVDKKVEPKSCDKTHTCPPCPAPEAAGGPSVFLFPPKPKDTLMISRTPEVTCVVVDVSHEDPEVKFNWYVDGVEVHNAKTKPREEQYNSTYRVVSVLTVLHQDWLNGKEYKCKVSNKALPAPIEKTISKAKGQPREPQVCTLPPSRDELTKNQVSLSCAVKGFYPSDIAVEWESNGQPENNYKTTPPVLDSDGSFFLVSKLTVDKSRWQQGNVFSCSVMHEALHNHYTQKSLSLSPGK
light 2: DVVLTQSPLSLPVTLGQPASISCKSSQSLLHSSGKTYLNWLLQRPGQSPRRLIYLVSKLDSGVPDRFSGSGSGTDFTLKISRVEAEDVGVYYCAQGTHFPRTFGGGTKVEIKRTVAAPSVFIFPPSDEQLKSGTASVVCLLNNFYPREAKVQWKVDNALQSGNSQESVTEQDSKDSTYSLSSTLTLSKADYEKHKVYACEVTHQGLSSPVTKSFNRGEC
EC50 ratio (relative to JNJ-64407564), cytotoxic activity against NCI-H929: 0.09 ratio
